Measured values reported in patent US20240352434, “COMPOSITIONS COMPRISING A VARIANT CAS12I3 POLYPEPTIDE AND USES THEREOF” (Arbor Biotechnologies, Inc., published 2024).

T1: Cas12i3 S801R (Unidentified, S801R)
T1 chain: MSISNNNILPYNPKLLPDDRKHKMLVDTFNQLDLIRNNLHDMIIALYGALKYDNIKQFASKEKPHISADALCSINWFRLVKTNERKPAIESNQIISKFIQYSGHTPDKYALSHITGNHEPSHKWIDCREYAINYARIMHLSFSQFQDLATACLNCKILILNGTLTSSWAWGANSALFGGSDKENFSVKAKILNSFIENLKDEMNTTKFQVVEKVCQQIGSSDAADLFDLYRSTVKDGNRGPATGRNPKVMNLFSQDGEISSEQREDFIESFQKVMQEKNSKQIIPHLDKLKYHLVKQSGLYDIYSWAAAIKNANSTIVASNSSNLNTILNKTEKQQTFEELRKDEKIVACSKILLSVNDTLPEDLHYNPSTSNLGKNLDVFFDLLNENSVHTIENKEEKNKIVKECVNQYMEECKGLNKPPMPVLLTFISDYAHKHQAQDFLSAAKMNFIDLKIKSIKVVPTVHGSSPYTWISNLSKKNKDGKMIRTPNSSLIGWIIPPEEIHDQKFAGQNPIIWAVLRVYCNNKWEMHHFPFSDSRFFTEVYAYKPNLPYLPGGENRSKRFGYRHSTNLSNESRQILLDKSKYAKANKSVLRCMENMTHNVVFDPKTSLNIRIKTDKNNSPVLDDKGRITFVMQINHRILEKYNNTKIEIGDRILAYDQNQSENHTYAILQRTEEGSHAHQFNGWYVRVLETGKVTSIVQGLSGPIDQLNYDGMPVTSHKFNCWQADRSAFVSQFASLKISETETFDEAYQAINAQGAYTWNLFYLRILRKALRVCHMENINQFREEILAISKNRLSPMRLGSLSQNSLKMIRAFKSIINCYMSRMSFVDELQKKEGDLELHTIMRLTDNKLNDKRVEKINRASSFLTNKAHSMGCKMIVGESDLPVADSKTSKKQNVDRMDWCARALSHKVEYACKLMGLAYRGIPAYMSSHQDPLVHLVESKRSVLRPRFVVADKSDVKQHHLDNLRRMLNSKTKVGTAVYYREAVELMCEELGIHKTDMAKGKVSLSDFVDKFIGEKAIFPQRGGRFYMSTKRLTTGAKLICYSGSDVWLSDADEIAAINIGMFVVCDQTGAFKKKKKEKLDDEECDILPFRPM

T2: Cas12i3 K583R N711R C724R (Unidentified, K583R,N711R,C724R)
T2 chain: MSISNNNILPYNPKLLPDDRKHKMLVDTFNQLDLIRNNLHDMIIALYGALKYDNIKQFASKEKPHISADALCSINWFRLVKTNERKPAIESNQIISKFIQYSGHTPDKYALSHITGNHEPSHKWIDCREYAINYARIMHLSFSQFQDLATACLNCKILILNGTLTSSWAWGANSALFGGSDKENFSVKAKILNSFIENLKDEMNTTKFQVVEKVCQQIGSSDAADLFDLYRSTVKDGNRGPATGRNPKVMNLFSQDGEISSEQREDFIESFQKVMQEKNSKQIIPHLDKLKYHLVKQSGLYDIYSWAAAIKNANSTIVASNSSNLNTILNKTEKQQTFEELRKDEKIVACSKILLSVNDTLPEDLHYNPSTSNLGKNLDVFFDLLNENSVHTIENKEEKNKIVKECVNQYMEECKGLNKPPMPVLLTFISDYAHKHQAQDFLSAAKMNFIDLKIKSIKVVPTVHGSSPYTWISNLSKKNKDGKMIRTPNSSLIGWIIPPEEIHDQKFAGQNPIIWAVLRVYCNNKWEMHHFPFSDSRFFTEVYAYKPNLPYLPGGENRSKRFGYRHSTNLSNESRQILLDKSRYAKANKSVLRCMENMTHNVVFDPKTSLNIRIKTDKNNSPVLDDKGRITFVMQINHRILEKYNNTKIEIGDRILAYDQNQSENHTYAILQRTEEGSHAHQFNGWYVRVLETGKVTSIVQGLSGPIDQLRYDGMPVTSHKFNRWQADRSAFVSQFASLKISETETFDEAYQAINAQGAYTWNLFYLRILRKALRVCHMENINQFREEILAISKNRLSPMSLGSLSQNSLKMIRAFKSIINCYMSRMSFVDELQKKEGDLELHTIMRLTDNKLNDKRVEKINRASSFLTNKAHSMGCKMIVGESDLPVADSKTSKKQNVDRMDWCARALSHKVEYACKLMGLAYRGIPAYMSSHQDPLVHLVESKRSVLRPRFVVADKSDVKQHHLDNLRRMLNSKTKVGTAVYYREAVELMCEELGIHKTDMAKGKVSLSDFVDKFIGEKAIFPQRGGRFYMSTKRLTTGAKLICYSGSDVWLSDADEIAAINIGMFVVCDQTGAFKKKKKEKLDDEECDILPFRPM


How the values were obtained:
Cas12i3 S801R = target: T1, Cas12i3 S801R; assay: cell_activity; fold change in % indels, HEK293T; PAM not stated in example
Protocol: (§1) Approximately 16 hours prior to transfection, 100 μl of 25,000 HEK293T cells in DMEM/10% FBS+Pen/Strep were plated into each well of a 96-well plate. On the day of transfection, the cells were 70-90% confluent. For each well to be transfected, a mixture of 0.5 μl of Lipofectamine 2000 and 9.5 μl of Opti-MEM was prepared and then incubated at room temperature for 5-20 minutes (Solution 1). […] In the case of negative controls, the crRNA was not included in Solution 2. The solution 1 and solution 2 mixtures were mixed by pipetting up and down and then incubated at room temperature for 25 minutes. Following incubation, 20 μL of the Solution 1 and Solution 2 mixture were added dropwise to each well of a 96 well plate containing the cells. 72 hours post transfection, cells are trypsinized by adding 10 μL of TrypLE to the center of each well and incubated for approximately 5 minutes. 100 μL of D10 media was then added to each well and mixed to resuspend cells. The cells were then spun down at 500 g for 10 minutes, and the supernatant was discarded. QuickExtract buffer was added to ⅕ the amount of the original cell suspension volume. Cells were incubated at 65° C. for 15 minutes, 68° C. for 15 minutes, and 98° C. for 10 minutes.
(§2) Samples for Next Generation Sequencing were prepared by two rounds of PCR. The first round (PCR1) was used to amplify specific genomic regions depending on the target. PCR1 products were purified by column purification. Round 2 PCR (PCR2) was done to add Illumina adapters and indexes. Reactions were then pooled and purified by column purification. Sequencing runs were done with a 150 cycle NextSeq v2.5 mid or high output kit.

[1] = target: T2, Cas12i3 K583R N711R C724R; assay: as above
Protocol: as §1, §2

Binder | binding signal (Cas12i3 S801R) | binding signal [1]
AAVS1_T3 crRNA ; AAVS1_T3 target (ssRNA ; dsDNA) RNA: AUAGUGUGUCCUUAGUUGACAUGUGAGAAUGGUGCGUCCUAG DNA 1: GTGAGAATGGTGCGTCCTAG DNA 2: CTAGGACGCACCATTCTCAC | 2.2 fold of wild-type | 2.96 fold of wild-type
VEGFA_T2 crRNA ; VEGFA_T2 target (ssRNA ; dsDNA) RNA: AUAGUGUGUCCUUAGUUGACAUAAUCCUCCACCAGUCAUGGU DNA 1: AATCCTCCACCAGTCATGGT DNA 2: ACCATGACTGGTGGAGGATT | 1.74 fold of wild-type | 2.57 fold of wild-type
EMX1_T5 crRNA ; EMX1_T5 target (ssRNA ; dsDNA) RNA: AUAGUGUGUCCUUAGUUGACAUUAUUAUUCCCAUAGGGAAGG DNA 1: TATTATTCCCATAGGGAAGG DNA 2: CCTTCCCTATGGGAATAATA | 1.44 fold of wild-type | 1.99 fold of wild-type
